Source: patent US12624112 (MABWELL SHANGHAI BIOSCIENCE, dated 2026)

Legend:
Cyno ST2-fc [1] = biological target: T1, Cyno ST2-fc (cyno; human, UniProt A0A2K5UDB8 19-331); experiment: SPR Biacore X100, antibody on CM5, cyno ST2-fc analyte
T1 construct: also called cyno ST2 fused with a human IgG1 Fc tag at the C-terminus
T1 sequence: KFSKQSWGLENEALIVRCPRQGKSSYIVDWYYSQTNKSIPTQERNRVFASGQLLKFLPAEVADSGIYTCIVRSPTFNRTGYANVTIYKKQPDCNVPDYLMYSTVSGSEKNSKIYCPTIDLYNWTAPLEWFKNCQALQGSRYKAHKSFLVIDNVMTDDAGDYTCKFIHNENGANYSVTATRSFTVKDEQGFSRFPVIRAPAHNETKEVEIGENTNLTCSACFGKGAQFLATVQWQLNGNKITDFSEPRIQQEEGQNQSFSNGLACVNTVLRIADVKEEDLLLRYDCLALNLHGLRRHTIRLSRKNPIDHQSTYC
Protocol: The experiment on the interactions between the anti-human ST2 antibodies and cyno ST2-fc was performed using Biacore X100, and was carried out at 25° C. in HBS-EP (1×) buffer (pH 7.4). Each antibody was immobilized on the surface of CM5 chip using an amino coupling kit. Following the antibody immobilization, a solution of cyno ST2-fc (2-fold gradient dilution from a starting concentration of 8 nM, to obtain 6 concentrations in total; the starting concentration might be increased if the signal of some sample was too low) was injected. Association was monitored for 2 min and dissociation for 10 min, and the sensor surface was regenerated by injecting a solution of glycine at pH 1.5.

ST2 on KU812 cells [2] = biological target: T2, ST2 on KU812 cells (UniProt Q01638 19-556, limits assumed); experiment: cell-based or functional assay
T2 sequence (looked up): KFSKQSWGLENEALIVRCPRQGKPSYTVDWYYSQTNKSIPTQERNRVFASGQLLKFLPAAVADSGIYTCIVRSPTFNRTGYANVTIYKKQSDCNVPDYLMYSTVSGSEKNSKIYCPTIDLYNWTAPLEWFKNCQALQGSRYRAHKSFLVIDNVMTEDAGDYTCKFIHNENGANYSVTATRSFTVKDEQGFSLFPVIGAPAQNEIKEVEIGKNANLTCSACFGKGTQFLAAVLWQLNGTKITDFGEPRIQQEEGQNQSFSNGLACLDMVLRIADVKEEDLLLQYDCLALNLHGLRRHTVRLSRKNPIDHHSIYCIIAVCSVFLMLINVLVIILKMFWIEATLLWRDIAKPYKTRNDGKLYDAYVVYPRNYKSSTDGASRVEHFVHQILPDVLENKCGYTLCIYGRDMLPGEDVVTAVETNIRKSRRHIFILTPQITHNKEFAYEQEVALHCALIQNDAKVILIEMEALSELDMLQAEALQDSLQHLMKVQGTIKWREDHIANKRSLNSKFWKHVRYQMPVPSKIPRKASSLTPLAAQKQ

Human ST2-his [3] = biological target: T3, Human ST2-his (human, UniProt Q01638 19-328); experiment: ELISA, coated human ST2-his
T3 construct: Expressed in CHO-K1; also called human ST2 fused with a 6-histidine tag at the C-terminus
T3 sequence: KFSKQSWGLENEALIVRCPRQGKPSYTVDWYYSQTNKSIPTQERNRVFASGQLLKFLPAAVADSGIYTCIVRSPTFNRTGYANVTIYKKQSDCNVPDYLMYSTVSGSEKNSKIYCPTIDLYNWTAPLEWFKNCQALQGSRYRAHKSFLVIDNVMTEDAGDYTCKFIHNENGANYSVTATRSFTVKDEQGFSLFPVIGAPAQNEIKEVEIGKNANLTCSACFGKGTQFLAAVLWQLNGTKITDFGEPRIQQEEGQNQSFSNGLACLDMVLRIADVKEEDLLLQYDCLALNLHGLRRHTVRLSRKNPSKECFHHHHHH
Protocol: Human ST2-his was diluted with a coating buffer to 1 μg/mL, added into plates at 50 μL/well, and coated overnight at 4° C. Next day, the coated plates were taken, washed with PBST for 3 times, and then incubated using a blocking buffer at room temperature for 1 hr. Subsequently, the plates were washed with PBST for 3 times again. Starting at 100 ng/mL, each murine antibody was diluted 3-fold to obtain serial dilutions of 8 concentrations in total which were then added into the 96-well plates at 50 μL/well. The plates were incubated at room temperature for 1 hr, washed with PBST for 3 times; and then a goat anti-mouse secondary antibody (1:10000) was added at 50 μL/well into the 96-well plates which subsequently were incubated at room temperature for 1 hr. The 96-well plates were washed with PBST for 3 times, and TMVB was added at 50 μL/well to develop color in dark for 10 min. Afterwards, 2 M sulfuric acid was added to stop reaction; and GD values at 450 nm were read by a micro-plate reader.

Human ST2-fc (human) = Human ST2-fc (human) (UniProt Q01638); experiment: competition ELISA, coated ST2-fc, competitor IL33-his
ST2 on KU812 cells [4] = biological target: T2, ST2 on KU812 cells; experiment: cell-based or functional assay; remark: listed apart in the source
Human ST2-his [5] = biological target: T3, Human ST2-his; experiment: SPR Biacore X100, antibody on protein A, ST2-his analyte
Protocol: On the basis of the results of the quantitative screenings of murine antibodies above together, 19 murine antibodies were selected for affinity determination and in vitro pharmacological study. The experiment on the interaction between the anti-human ST2 antibodies and human ST2-his was performed using Biacore X100, and was carried out at 25° C. in HBS-EP (1×) buffer (pH 7.4).
Each anti-human ST2 antibody was diluted to 10 nM and captured on the surface of a protein A chip (for a capture time of 60 s). […] Association was monitored for 4 min and dissociation for 10 min, and the sensor surface was regenerated by injecting a solution of glycine at pH 2.0. Data generated for kinetics and affinity assay were analyzed using BIAevaluation software.

Cyno ST2-fc [6] = biological target: T1, Cyno ST2-fc; experiment: ELISA, coated cyno ST2-fc
Protocol: Cyno ST2-fc was diluted with a coating buffer to 1 μg/mL, added into 96-well plates at 50 μL/well and coated overnight at 4° C. Next day, the coated plates were taken, washed with PB ST for 3 times, and then incubated using a blocking buffer at room temperature for 1 hr. Subsequently, the plates were washed with PBST for 3 times again. Starting at 1000 ng/mL, each murine antibody was diluted 3-fold to obtain serial dilutions of 8 concentrations in total which were then added into the 96-well plates at 50 μL/well. The plates were incubated at room temperature for 1 hr, washed with PB ST for 3 times; and then a goat anti-mouse secondary antibody (1:10000) was added at 50 μL/well into the 96-well plates which subsequently were incubated at room temperature for 1 hr. The 96-well plates were washed with PB ST for 3 times, and TMB was added at 50 μL/well to develop color in dark for 10 min. Afterwards, 2 M sulfuric acid was added to stop reaction; and GD values at 450 nm were read by a microplate reader. It can be seen that the murine antibodies can bind to cyno ST2, with a binding trendency consistent with the binding to human ST2.

B1: 5888-379H1+L2 (antibody, V domains shown)
VH: QIQLAQSGPELKKPGETVKISCKASGYTFINYGMNWVKQAPGKDLKWMGWINTYIGEPTYGDNFKGRFAFSLETSASTVYLQINNLKNEDTATYFCAREGDGFAYWGQGTLVTVSA
VL: DIVMTQSPPSLSVSVGEKVTMSCKSSQSLLYSGNQNNYLAWYQQKPGQPPKLLIYGASTRESGVPDRFTGSGSGTDFTLTISSVQAEDLAVYYCQNDHSYPYTFGGGTKLEIK
notes: murine antibody
Cyno ST2-fc [1]
  Kd: 0.0317 nM
  koff: 0.000152 s⁻¹
  kon: 4.78e+06 M⁻¹ s⁻¹
ST2 on KU812 cells [2]
  Maximum inhibition rate (%), KU812 IL-5 production: 92.7%
  Relative activity (%), KU812 IL-5 production: 19.2%
Human ST2-his [3]
  EC50: 0.0295 µg/mL
  Relative activity (%) compared with CNTO7160: 33.9%
Human ST2-fc (human)
  IC50: 0.83 µg/mL
  Relative activity (%) compared with CNTO7160: 70.1%
ST2 on KU812 cells [4]
  IC50, activation of KU812-NF-κB reporter gene by IL33: 0.391 µg/mL
  Relative activity (%) compared with CNTO7160, KU812-NF-κB reporter: 64.2%
Human ST2-his [5]
  Kd: 0.571 nM
  koff: 0.000546 s⁻¹
  kon: 957000 M⁻¹ s⁻¹
Cyno ST2-fc [6]
  EC50: 0.0602 µg/mL
  Relative activity (%): 40.6%
